Laboratory results taken from US20200048328A1 (Bristol-Myers Squibb, published 2020).

Key:
[1] = molecular target: T1, human PCSK9 (human, UniProt Q8NBP7 31-692); test: SPR, dual injection on immobilized albumin
T1 construct: also called hPCSK9; huPCSK9

[2] = molecular target: T2, human serum albumin (human, UniProt P02768 25-609); test: SPR, albumin immobilized, HBSP pH 7.4
T2 construct: immobilized on chips or coated on plates elsewhere; also called HSA; HuSA

[3] = molecular target: T3, mouse serum albumin (mouse, UniProt P07724 25-608); test: SPR, albumin immobilized, HBSP pH 7.4
T3 construct: also called MSA; MuSA
T3 sequence (P07724 25-608 limits assumed): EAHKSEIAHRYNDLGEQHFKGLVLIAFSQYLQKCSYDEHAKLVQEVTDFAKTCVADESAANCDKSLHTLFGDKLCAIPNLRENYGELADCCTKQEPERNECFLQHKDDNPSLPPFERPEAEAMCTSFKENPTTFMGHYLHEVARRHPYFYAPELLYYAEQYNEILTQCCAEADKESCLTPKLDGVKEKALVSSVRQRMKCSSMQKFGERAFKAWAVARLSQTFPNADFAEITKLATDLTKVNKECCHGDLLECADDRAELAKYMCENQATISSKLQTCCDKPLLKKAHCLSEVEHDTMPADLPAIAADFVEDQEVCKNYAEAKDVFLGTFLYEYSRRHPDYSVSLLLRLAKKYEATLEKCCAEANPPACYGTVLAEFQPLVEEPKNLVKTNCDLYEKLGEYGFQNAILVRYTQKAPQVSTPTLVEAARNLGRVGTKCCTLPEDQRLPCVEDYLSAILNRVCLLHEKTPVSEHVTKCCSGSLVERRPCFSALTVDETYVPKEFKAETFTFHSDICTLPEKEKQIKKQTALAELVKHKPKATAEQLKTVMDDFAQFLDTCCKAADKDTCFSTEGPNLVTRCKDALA

[4] = molecular target: T4, rhesus serum albumin (rhesus, UniProt Q28522 17-600); test: SPR, albumin immobilized, HBSP pH 7.4
T4 construct: also called RhSA; Rh-SA
T4 sequence (Q28522 17-600 limits assumed): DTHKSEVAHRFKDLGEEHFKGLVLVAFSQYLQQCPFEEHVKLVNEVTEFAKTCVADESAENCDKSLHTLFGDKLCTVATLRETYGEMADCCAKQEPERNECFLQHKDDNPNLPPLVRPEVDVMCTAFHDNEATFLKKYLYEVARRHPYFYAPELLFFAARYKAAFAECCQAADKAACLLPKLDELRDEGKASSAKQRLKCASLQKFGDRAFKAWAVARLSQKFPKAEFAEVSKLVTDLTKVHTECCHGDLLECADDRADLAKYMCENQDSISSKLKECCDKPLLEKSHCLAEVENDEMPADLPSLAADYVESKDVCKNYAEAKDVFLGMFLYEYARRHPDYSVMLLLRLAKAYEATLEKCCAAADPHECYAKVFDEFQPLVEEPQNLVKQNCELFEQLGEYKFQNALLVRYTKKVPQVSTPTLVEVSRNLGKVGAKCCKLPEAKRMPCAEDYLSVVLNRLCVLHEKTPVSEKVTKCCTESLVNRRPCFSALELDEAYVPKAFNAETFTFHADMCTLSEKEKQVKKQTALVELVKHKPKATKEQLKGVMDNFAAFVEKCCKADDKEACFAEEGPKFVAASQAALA

[5] = molecular target: T2, human serum albumin; test: direct binding ELISA on coated HSA, mono-Adnectin (column HSA EC50 (nM))
[6] = molecular target: T2, human serum albumin; test: SPR, albumin immobilized, acetate pH 5.5
[7] = molecular target: T3, mouse serum albumin; test: SPR, albumin immobilized, acetate pH 5.5
[8] = molecular target: T4, rhesus serum albumin; test: SPR, albumin immobilized, acetate pH 5.5
[9] = molecular target: T2, human serum albumin; test: SPR, albumin immobilized, Adnectin 250 nM
[10] = molecular target: T5, rat serum albumin (rat, UniProt P02770 25-608); test: SPR, albumin immobilized, Adnectin 250 nM
T5 construct: also called Rat SA; RSA
T5 sequence (P02770 25-608 limits assumed): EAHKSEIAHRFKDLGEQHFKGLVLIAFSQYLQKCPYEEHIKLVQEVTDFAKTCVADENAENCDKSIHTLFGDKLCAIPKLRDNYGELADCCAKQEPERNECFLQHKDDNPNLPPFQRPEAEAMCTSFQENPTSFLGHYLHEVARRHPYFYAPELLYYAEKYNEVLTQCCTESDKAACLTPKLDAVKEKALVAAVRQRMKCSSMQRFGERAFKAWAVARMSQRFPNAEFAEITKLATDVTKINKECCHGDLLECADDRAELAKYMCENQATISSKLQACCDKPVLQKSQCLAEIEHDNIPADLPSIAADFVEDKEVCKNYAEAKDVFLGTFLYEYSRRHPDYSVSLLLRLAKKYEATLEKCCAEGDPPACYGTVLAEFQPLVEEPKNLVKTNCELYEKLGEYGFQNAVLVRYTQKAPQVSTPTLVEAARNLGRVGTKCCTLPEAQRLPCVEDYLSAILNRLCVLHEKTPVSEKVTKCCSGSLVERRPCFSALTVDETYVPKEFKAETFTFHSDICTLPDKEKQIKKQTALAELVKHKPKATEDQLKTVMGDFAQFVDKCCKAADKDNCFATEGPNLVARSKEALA

[11] = molecular target: T3, mouse serum albumin; test: SPR, albumin immobilized, Adnectin 250 nM
[12] = molecular target: T4, rhesus serum albumin; test: SPR, albumin immobilized, Adnectin 250 nM
[13] = molecular target: T2, human serum albumin; test: SPR, albumin immobilized, acetate pH 7.4
[14] = molecular target: T3, mouse serum albumin; test: SPR, albumin immobilized, acetate pH 7.4
[15] = molecular target: T4, rhesus serum albumin; test: SPR, albumin immobilized, acetate pH 7.4
[16] = molecular target: T2, human serum albumin; test: direct binding ELISA, albumin coated
Procedure: (§1) Cross-species albumin binding was determined using the ELISA method described above.

[17] = molecular target: T3, mouse serum albumin; test: direct binding ELISA, albumin coated
Procedure: as §1

[18] = molecular target: T4, rhesus serum albumin; test: direct binding ELISA, albumin coated
Procedure: as §1

[19] = molecular target: T2, human serum albumin; test: SPR, albumin immobilized, acetate pH 7.4; remark: listed apart in the source
[20] = molecular target: T3, mouse serum albumin; test: SPR, albumin immobilized, acetate pH 7.4; remark: listed apart in the source
[21] = molecular target: T4, rhesus serum albumin; test: SPR, albumin immobilized, acetate pH 7.4; remark: listed apart in the source
[22] = molecular target: T2, human serum albumin; test: SPR, albumin immobilized;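 also: biacore SPR with human, rhesus or mouse serum albumin amine-coupled to the chip (about 1200 RU), 3 min association, 6-10 min dissociation, reference-subtracted traces fitted with a 1:1 model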
Procedure: (§2) To determine the kinetics of binding to human, rhesus, and mouse serum albumin, as well as whether binding was retained at both physiological and endosomal pHs, the respective serum albumins were immobilized on a Biacore CMS chip to a surface density of ˜1200 RU using standard NHS/EDC coupling. […] Kinetic measurements were carried out using a 3 min association and 6-10 min dissociation phase. Kinetic traces of reference-subtracted sensorgrams were fit to a 1:1 binding model using the Biaevaluation software.

[23] = molecular target: T3, mouse serum albumin; test: SPR, albumin immobilized;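 also: biacore SPR with human, rhesus or mouse serum albumin amine-coupled to the chip (about 1200 RU), 3 min association, 6-10 min dissociation, reference-subtracted traces fitted with a 1:1 model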
Procedure: as §2

[24] = molecular target: T4, rhesus serum albumin; test: SPR, albumin immobilized;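 also: biacore SPR with human, rhesus or mouse serum albumin amine-coupled to the chip (about 1200 RU), 3 min association, 6-10 min dissociation, reference-subtracted traces fitted with a 1:1 model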
Procedure: as §2

[25] = molecular target: T2, human serum albumin; test: SPR, albumin immobilized, HBSP pH 7.4; remark: listed apart in the source
[26] = molecular target: T3, mouse serum albumin; test: SPR, albumin immobilized, HBSP pH 7.4; remark: listed apart in the source
[27] = molecular target: T4, rhesus serum albumin; test: SPR, albumin immobilized, HBSP pH 7.4; remark: listed apart in the source
[28] = molecular target: T6, domain I of HSA (human, UniProt P02768 25-221, limits assumed); test: SPR on HSA domains
T6 construct: domain: I; also called HSA domain I

[29] = molecular target: T7, domain III of HSA (human, UniProt P02768 405-609, limits assumed); test: SPR on HSA domains
T7 construct: domain: III; also called HuSA domainIII

[30] = molecular target: T3, mouse serum albumin; test: SPR, albumin immobilized, acetate pH 7.4; acetate pH 7.4, MuSA

binding result [1]: no binding
Kd [2]: 10.6 nM
koff [2]: 0.000219 s⁻¹
kon [2]: 20700 M⁻¹ s⁻¹
Kd [3]: 3.43 nM
koff [3]: 0.000272 s⁻¹
kon [3]: 79100 M⁻¹ s⁻¹
Kd [4]: 12.7 nM
koff [4]: 0.000276 s⁻¹
kon [4]: 21800 M⁻¹ s⁻¹
EC50 [5]: 20 nM
Kd [6]: 4.64 nM
koff [6]: 0.000326 s⁻¹
kon [6]: 70400 M⁻¹ s⁻¹
Kd [7]: 14.9 nM
koff [7]: 0.00125 s⁻¹
kon [7]: 84000 M⁻¹ s⁻¹
Kd [8]: 12 nM
koff [8]: 0.000584 s⁻¹
kon [8]: 48500 M⁻¹ s⁻¹
koff [9]: 0.000169 s⁻¹
koff [10]: 0.000767 s⁻¹
koff [11]: 0.000401 s⁻¹
koff [12]: 0.000219 s⁻¹
Kd [13]: 9.74 nM
koff [13]: 0.000272 s⁻¹
kon [13]: 28000 M⁻¹ s⁻¹
Kd [14]: 3.48 nM
koff [14]: 0.000268 s⁻¹
kon [14]: 76800 M⁻¹ s⁻¹
Kd [15]: 11.8 nM
koff [15]: 0.000328 s⁻¹
kon [15]: 27900 M⁻¹ s⁻¹
EC50 [16]: 14.5 nM
EC50 [17]: 2.8 nM
EC50 [18]: 10.5 nM
Kd [19]: 9.6 nM
koff [19]: 0.000243 s⁻¹
kon [19]: 25400 M⁻¹ s⁻¹
Kd [20]: 11.2 nM
koff [20]: 0.000503 s⁻¹
Kd [21]: 10.4 nM
koff [21]: 0.000297 s⁻¹
kon [21]: 28600 M⁻¹ s⁻¹
Kd [22]: 12.3 nM
koff [22]: 0.000213 s⁻¹
kon [22]: 17400 M⁻¹ s⁻¹
Kd [23]: 3.6 nM
koff [23]: 0.000242 s⁻¹
kon [23]: 68400 M⁻¹ s⁻¹
Kd [24]: 14.5 nM
koff [24]: 0.000283 s⁻¹
kon [24]: 19500 M⁻¹ s⁻¹
Kd [25]: 10.7 nM
koff [25]: 0.000192 s⁻¹
kon [25]: 17900 M⁻¹ s⁻¹
Kd [26]: 3.3 nM
koff [26]: 0.000262 s⁻¹
kon [26]: 79600 M⁻¹ s⁻¹
Kd [27]: 11.4 nM
koff [27]: 0.000267 s⁻¹
kon [27]: 23500 M⁻¹ s⁻¹
binding result [28]: no binding
binding result [29]: no binding
kon [30]: ~76800 M⁻¹ s⁻¹
B1: PKE2 Adnectin 2629_E06 (designed binder)
chain: MGVSDVPRDLEVVAATPTSLLISWDAPAVTVRYYRITYGREVQKYSDLGPLYIYQEFTVPGSKSTATISGLKPGVDYTITVYAVTGSGESPASSKPISINYRTEIDKPSQHHHHHH
notes: 10Fn3 domain with modified CD loop; the entry includes the His6 tail; also called ADX_2629_E06
